One may read the Kd as the free concentration of one partner at which half of the binding sites on the other are occupied at equilibrium, for simple one-to-one binding. A high value points to a looser complex.

Changes are numbered by the printed parent chain.

The text below walks through data of US20100136009A1 (DIADEXUS, published 2010).

To fix the notation:
B1: Ovr110.Q23 (antibody, IgG1, V domains shown)
VH: QVQLQQSGAELMKPGASVKISCKATGYTFSSYWIEWVKQRPGHGLEWIGEILPGSGITKYNEKFKTKATFTADTSSNTAYMQLSSLTSEDSAVYYCARYYFGSVNFYFDCWGQGTTLTVSS
VL: QAVVTQESALTTSPGETVTLTCRSSTGAVTTSNYANWVQEKPDHLFTGLIGGTDNRPPGVPARFSGSLIGDKAALTITGTQTEDEAIYFCALWYSNHWVFGGGTKLTVLG
notes: Mouse hybridoma MAb; also called Q23.6
B2: Ovr110.Q19 (antibody, IgG1, V domains shown)
VH: DVLLQESGPGLVKASQSLSLTCSVTGYSITSGYFWNWIRQFPGNKLEWMGYISYDGGNSYNPSLKNRISITRDTSKNQFFLRMKSVTAEDTATYYCARKALWLRFDYWGQGTTLTVSS
VL: EIVLTQSPAIMSVYLGEKVTMTCSASLSVSYMHWYQQKSSTSPKLWIYDTSKVASGVPGRFSGSGSGNSYSLTISSMEAEDVATYYCFQGSGYPFTFGSGTKLEIKR
notes: Mouse hybridoma MAb; also called Q19.6; Ovr110.Q19.6
B3: Ovr110.Q11 (antibody, V domains shown)
VH: B2 VH with L3Q, A14P, N36S, Y51F, G57T, M83L, K84N, A88K, A100L
VL: B2 VL with I2N, V13A, Y14S, L15P, L27S, V53L
notes: Mouse hybridoma MAb; also called Q11.12.3; Ovr110.Q11.12.3
B4: Ovr110.Q12 (antibody, IgG1, V domains shown)
VH: QVQLQQPGAELVKPGATVKLSCKTSGYTFTSYWMHWVKQRPGQGLEWIGEIDPSDSYTNYNQKFKGKATLTVDTSSTTAYMQLSSLTSEDSAVYYCAREYGNNDAMDYWGQGTSVTVSS
VL: QIVLTQSPAIMSASPGEKVTMTCSASSGISYMHWYQQKPGTTPKRWIYDASKLASGVPSRFSGSGSGTSYSLTISSMEAEDAATYYCHQRRSYPFTFGSGTKLEIKR
notes: Mouse hybridoma MAb; also called Q12.2; Ovr110.Q12.2

In the first experiment the target is T1, Ovr110 (amino acids 1-282; Ovr110 Construct 1 without the 6-His tag) expressed on transiently transfected … (human, UniProt Q7Z7D3 25-282).
T1 construct: signal peptide not removed here
T1 sequence: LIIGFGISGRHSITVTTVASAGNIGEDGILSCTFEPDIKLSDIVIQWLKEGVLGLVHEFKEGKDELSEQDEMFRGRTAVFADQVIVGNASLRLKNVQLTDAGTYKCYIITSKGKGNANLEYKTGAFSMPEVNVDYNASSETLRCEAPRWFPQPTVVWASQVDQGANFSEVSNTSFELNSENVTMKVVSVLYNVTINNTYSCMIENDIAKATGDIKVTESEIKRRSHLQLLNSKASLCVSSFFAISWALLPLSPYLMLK
As to the kind of experiment: flow cytometry; purified MAb; Ovr110-transfected 293F cells.
With B1, the “% Cells Positive” value was found to be 92.6% and the MFI is 4.98.
Consider B2, for which the “% Cells Positive” value was 91.9% and the MFI turned out to be 5.25.
On the same counts, the results for B3 are 93.8% and 5.47.
As to B4, the “% Cells Positive” value was 94.3% and the MFI worked out at 5.25.

The next experiment addresses T2, recombinant Ovr110-hFc encoded by Ovr110 Construct 2 (human).
T2 construct: Captured on plates by goat anti-human IgG Fc; also called Ovr110-hFc (with TM)
T2 chain: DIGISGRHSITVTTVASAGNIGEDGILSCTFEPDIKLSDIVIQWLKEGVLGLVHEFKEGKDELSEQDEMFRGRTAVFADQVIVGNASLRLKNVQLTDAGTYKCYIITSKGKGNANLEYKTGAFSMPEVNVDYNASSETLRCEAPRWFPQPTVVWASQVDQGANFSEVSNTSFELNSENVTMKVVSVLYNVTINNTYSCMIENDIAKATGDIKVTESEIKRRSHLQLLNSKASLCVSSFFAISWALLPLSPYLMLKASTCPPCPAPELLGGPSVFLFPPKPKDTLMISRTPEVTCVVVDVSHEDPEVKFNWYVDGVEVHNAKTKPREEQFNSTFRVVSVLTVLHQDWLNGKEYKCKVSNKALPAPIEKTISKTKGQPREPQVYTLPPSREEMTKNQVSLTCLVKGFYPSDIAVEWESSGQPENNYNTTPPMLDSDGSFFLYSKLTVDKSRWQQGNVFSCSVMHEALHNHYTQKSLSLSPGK
As to the kind of experiment: competition ELISA; row = unlabeled blocking MAb; competitor = biotinylated detecting MAb C6.3. A general note: In an ELISA, binding on a coated surface is turned into a signal by an enzyme label.
B1: the signal/noise ratio was 1.2.
Same read-out and setting: in the case of B2 it was 1.2; in that of B3, 1.2.
With B4, the signal/noise ratio was determined as 1.2.

The next experiment addresses T2, recombinant Ovr110-hFc encoded by …. As to the kind of experiment: competition ELISA; row = unlabeled blocking MAb; competitor = biotinylated detecting MAb Q11.12.3.
Consider B1, for which the signal/noise ratio stood at 5.2.
On to B2, for which the signal/noise ratio stood at 1.
The same measure, in the same setting: as for B3, the figure is 1.
As to B4, the signal/noise ratio came to 1.2.

For another experiment, the target named is T3, native Ovr110 protein on tumor cells (ZR-75-1, SKBR3, RL95.2, OVCAR3) (human, UniProt Q7Z7D3 25-282).
T3 construct: whole, on cells; Endogenous protein of Ovr110-positive tumor cell lines; also called B7-H4; B7x
T3 sequence (looked up): T1 sequence
As to the kind of experiment: flow cytometry titration of fluorescein-labeled MAb on ZR75-1 cells; one-site fit. (Flow cytometry measures light scatter and fluorescence of single cells or particles in a stream.)
On to B1, for which binding was characterised by a dissociation constant (Kd) of 5660 pM.
B2 showed a Kd of 530 pM.
The same measure, in the same setting: as for B3, the figure is 740 pM; as for B4, 640 pM.

For another experiment, the target named is T2, recombinant Ovr110-hFc encoded by …. As to the kind of experiment: competition ELISA; row = unlabeled blocking MAb; competitor = biotinylated detecting MAb Q19.6.
As to B1, the signal/noise ratio was 6.
Consider B2, for which the signal/noise ratio was 1.
Still for that read-out and setting: as for B3, the figure is 1; as for B4, 1.1.

Another experiment has the same target. As to the kind of experiment: competition ELISA; row = unlabeled blocking MAb; competitor = biotinylated detecting MAb Q15.2.
As to B1, the signal/noise ratio was determined as 2.9.
B2: the signal/noise ratio stood at 11.7.
As to B3, the signal/noise ratio is 11.7.
As for B4, the signal/noise ratio was found to be 11.6.

For the next experiment the target is unchanged. As to the kind of experiment: competition ELISA; row = unlabeled blocking MAb; competitor = biotinylated detecting MAb Q3.1.
With B1, the signal/noise ratio stood at 1.4.
Turning to B2, the signal/noise ratio worked out at 1.3.
As for B3, the signal/noise ratio was determined as 1.3.
As for B4, the signal/noise ratio was 1.4.

The target in the next experiment is T3, native Ovr110 protein on tumor cells …. As to the kind of experiment: cell-based or functional assay.
B1: the “Percentage growth compared to wells with media alone; SKBR3; MAb 0.4 ug/mL with 1.0 ug/mL mAb-ZAP” value was determined as 68.9% and the “Percentage growth compared to wells with media alone; SKBR3; MAb 2.0 ug/mL with 1.0 ug/mL mAb-ZAP” value amounted to 73.6%.
In the case of B2, the “Percentage growth compared to wells with media alone; SKBR3; MAb 0.4 ug/mL with 1.0 ug/mL mAb-ZAP” value was found to be 49.8% and the “Percentage growth compared to wells with media alone; SKBR3; MAb 2.0 ug/mL with 1.0 ug/mL mAb-ZAP” value is 25%.

The next experiment has as its target T2, recombinant Ovr110-hFc encoded by …. The experiment is described as follows: competition ELISA; row = unlabeled blocking MAb; competitor = biotinylated detecting MAb A87.1.
Consider B1, for which the signal/noise ratio amounted to 6.7.
The same measure, in the same setting: in the case of B2 it was 6.6.
Turning to B3, the signal/noise ratio was found to be 6.4.
Take B4: the signal/noise ratio came out at 6.7.

In a further experiment the target is T3, native Ovr110 protein on tumor cells …. As to the kind of experiment: flow cytometry; hybridoma supernatant; SKBR3 cells.
Take B1: the “% Cells Positive” value is 97.1% and the “Mean Fluorescence Intensity (MFI)” value was 4.35.
On the same counts, the results for B2 are 98.9% and 10.4.
With B3, the “% Cells Positive” value is 98.7% and the “Mean Fluorescence Intensity (MFI)” value was 9.71.
Taken in the same sequence, the figures for B4 were 98.8% and 12.

The target is the same in a further experiment. The experiment is described as follows: cell-based or functional assay. The source holds these as a separate data set.
Take B1: the “Percentage growth compared to wells with media alone; ZR-75-1; MAb 0.4 ug/mL with 1.0 ug/mL mAb-ZAP” value was 37.5% and the “Percentage growth compared to wells with media alone; ZR-75-1; MAb 2.0 ug/mL with 1.0 ug/mL mAb-ZAP” value was 45.5%.
Turning to B2, the “Percentage growth compared to wells with media alone; ZR-75-1; MAb 0.4 ug/mL with 1.0 ug/mL mAb-ZAP” value was 28.1% and the “Percentage growth compared to wells with media alone; ZR-75-1; MAb 2.0 ug/mL with 1.0 ug/mL mAb-ZAP” value came out at 46.5%.

For another experiment the target is unchanged. As to the kind of experiment: flow cytometry; purified MAb; ZR-75-1 cells.
As for B1, the “% Cells Positive” value was found to be 92.7% and the MFI is 3.25.
As for B2, the “% Cells Positive” value is 95.6% and the MFI worked out at 4.11.
With B3, the “% Cells Positive” value is 96.4% and the MFI was 4.68.
As to B4, the “% Cells Positive” value was 94.1% and the MFI was determined as 3.76.

For another experiment, the target named is transferrin receptor (TfnR, CD71) on cells (UniProt P02786). The experiment is described as follows: cell-based or functional assay.
transferrin receptor (TfnR, CD71) on cells, sequence (P02786 whole entry): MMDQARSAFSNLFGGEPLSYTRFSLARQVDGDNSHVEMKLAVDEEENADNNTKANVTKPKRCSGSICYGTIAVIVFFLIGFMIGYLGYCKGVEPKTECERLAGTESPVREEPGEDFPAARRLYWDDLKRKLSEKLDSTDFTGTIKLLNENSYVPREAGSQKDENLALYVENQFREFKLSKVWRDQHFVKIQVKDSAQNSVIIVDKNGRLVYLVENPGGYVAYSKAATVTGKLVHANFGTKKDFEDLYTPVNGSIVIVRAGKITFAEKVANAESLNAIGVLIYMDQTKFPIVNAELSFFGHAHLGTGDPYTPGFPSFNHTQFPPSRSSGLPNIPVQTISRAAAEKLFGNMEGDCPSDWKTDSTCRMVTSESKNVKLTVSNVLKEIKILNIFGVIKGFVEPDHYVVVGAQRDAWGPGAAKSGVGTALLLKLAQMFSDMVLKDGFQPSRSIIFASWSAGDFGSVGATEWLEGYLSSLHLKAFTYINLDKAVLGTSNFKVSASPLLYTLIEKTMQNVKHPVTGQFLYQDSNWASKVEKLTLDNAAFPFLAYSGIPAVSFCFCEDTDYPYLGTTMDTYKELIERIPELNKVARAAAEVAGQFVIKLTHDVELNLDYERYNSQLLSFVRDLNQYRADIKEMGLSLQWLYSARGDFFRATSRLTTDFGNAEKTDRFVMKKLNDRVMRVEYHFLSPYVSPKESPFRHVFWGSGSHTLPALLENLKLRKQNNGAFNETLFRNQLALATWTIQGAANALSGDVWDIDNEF
Regarding anti-TfnR MAb 5E9 (ATCC) (antibody), the Percentage growth compared to wells with media alone; HCT116; MAb 2.0 ug/mL with 1.0 ug/mL mAb-ZAP came out at 24.9%, the Percentage growth compared to wells with media alone; SKBR3; MAb 0.4 ug/mL with 1.0 ug/mL mAb-ZAP was 18.4%, the Percentage growth compared to wells with media alone; SKBR3; MAb 2.0 ug/mL with 1.0 ug/mL mAb-ZAP came to 44.6% and the Percentage growth compared to wells with media alone; ZR-75-1; MAb 0.4 ug/mL with 1.0 ug/mL mAb-ZAP worked out at 35%. This molecule had a Percentage growth compared to wells with media alone; ZR-75-1; MAb 2.0 ug/mL with 1.0 ug/mL mAb-ZAP of 49.3%.

The next experiment has as its target T2, recombinant Ovr110-hFc encoded by …. The experiment is described as follows: competition ELISA; row = unlabeled blocking MAb; competitor = biotinylated detecting MAb Q23.6.
Turning to B1, the signal/noise ratio came to 1.
B2: the signal/noise ratio came to 4.8.
In the case of B3, the signal/noise ratio was found to be 4.5.
The same measure, in the same setting: as for B4, the figure is 3.6.

The target is the same in the next experiment. The experiment is described as follows: competition ELISA; row = unlabeled blocking MAb; competitor = biotinylated detecting MAb Q12.2.
As for B1, the signal/noise ratio was 2.8.
B2: the signal/noise ratio is 1.1.
For B3, the signal/noise ratio was determined as 1.
B4: the signal/noise ratio stood at 1.

A further experiment has the same target. As to the kind of experiment: competition ELISA; row = unlabeled blocking MAb; competitor = biotinylated detecting MAb Q27.4.
On to B1, for which the signal/noise ratio was determined as 2.2.
On to B2, for which the signal/noise ratio is 4.7.
On to B3, for which the signal/noise ratio stood at 4.7.
On the same count and under the same terms, in the case of B4 it was 4.3.

A further experiment has as its target T3, native Ovr110 protein on tumor cells …. As to the kind of experiment: flow cytometry; purified MAb; SKBR3 cells.
Take B1: the “% Cells Positive” value came to 93.9% and the MFI was 3.85.
In the case of B2, the “% Cells Positive” value is 95.2% and the MFI stood at 4.64.
Taken in the same sequence, the figures for B3 were 98.4% and 5.95.
B4: the “% Cells Positive” value amounted to 95.3% and the MFI worked out at 4.86.

Another experiment deals with T1, Ovr110 (amino acids 1-282; Ovr110 …). As to the kind of experiment: flow cytometry; hybridoma supernatant; Ovr110-transfected 293F cells.
Regarding B1, the “% Cells Positive” value came to 94.7% and the “Mean Fluorescence Intensity (MFI)” value is 17.9.
In the case of B2, the “% Cells Positive” value amounted to 95.7% and the “Mean Fluorescence Intensity (MFI)” value was 24.5.
Take B3: the “% Cells Positive” value is 95.7% and the “Mean Fluorescence Intensity (MFI)” value amounted to 26.
Consider B4, for which the “% Cells Positive” value was 96.6% and the “Mean Fluorescence Intensity (MFI)” value is 31.8.
